The text below walks through data of patent US20240270821A1, “GIP/GLP1/GCG TRI-RECEPTOR AGONISTS AND USES THEREOF” (priority 2023, published 2024).

Common to all, as to experiment: cell-based or functional assay
Test [1] concerns the target T1, human GIP receptor (human) (UniProt P48546).
T1 sequence (looked up): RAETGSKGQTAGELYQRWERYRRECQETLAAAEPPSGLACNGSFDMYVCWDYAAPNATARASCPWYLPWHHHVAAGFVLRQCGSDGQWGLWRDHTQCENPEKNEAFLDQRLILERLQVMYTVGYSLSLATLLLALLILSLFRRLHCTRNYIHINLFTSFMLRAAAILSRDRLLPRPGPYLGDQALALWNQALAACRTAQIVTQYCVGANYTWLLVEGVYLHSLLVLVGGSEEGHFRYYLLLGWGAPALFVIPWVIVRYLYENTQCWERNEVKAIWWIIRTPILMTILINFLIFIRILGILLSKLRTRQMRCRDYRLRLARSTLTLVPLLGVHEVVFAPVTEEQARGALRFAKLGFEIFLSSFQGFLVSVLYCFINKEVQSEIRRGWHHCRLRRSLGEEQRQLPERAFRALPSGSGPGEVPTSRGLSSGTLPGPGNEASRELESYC

In a further test the target is hGLP-1R (Homo sapiens, UniProt P43220).
In test [2] the target is human glucagon receptor (human) (UniProt P47871).
Sequence of human glucagon receptor (human) (P47871 26-477): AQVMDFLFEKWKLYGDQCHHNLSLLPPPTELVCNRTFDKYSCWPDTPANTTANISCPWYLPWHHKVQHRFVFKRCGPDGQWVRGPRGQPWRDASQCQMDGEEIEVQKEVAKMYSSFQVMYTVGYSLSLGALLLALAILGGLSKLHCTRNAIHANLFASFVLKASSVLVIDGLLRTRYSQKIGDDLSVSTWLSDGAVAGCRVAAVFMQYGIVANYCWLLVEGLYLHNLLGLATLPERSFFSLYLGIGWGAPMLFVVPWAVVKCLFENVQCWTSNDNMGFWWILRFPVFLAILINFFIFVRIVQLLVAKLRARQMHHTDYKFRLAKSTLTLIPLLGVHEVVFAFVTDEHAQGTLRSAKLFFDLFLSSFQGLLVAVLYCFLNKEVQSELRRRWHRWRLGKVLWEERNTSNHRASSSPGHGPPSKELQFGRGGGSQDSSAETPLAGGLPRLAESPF

Sequence of hGLP-1R (P43220 24-463): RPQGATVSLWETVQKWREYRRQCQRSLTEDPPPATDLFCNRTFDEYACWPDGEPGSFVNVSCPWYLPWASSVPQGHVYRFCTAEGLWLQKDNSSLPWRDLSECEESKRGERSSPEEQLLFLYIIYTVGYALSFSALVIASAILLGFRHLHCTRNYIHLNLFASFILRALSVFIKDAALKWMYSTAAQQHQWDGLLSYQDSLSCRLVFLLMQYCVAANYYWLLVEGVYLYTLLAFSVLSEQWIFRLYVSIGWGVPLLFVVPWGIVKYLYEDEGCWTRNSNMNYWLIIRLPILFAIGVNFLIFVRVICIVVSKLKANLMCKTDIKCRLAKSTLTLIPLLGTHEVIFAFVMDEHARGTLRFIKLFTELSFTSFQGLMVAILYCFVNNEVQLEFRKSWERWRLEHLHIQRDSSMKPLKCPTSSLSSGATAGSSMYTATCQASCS

B1: Example 473 (peptide)
chain: YXQGTXTSDXXIXLDXKAQXNFIEXLIEGGPSSGEPEPSEG
modifications: synthetic construct; SITE 2: note = 2-Aminoisobutyric Acid; SITE 6: note = alpha-methyl-2-fluoro-L-phenylalanine; SITE 10: note = 3-(4-Pyridyl)-L-alanine; SITE 11: note = alpha-methyl-L-serine; SITE 13: note = alpha-methyl-leucine; SITE 16: note = L-ornithine; SITE 17: note = Lysine is chemically mo
Take B1: the Relative cAMP EC50, nM (0.1% casein) was found to be 0.0101 nM in test [1], 0.173 nM in the test with hGLP-1R and 2.72 nM in test [2]. For the same molecule, the cAMP Rel EC50 (receptor-expressing HEK-293 cells, 1% HSA) was determined as 1.11 nM in test [1], 11.4 nM in the test with hGLP-1R and 311 nM in test [2].

B2: Example 474 (peptide)
chain: YXQGTXTSDXXIXLDXKAQXNFIEXLIEGGPSSGEPEPEEG
modifications: synthetic construct; SITE 2: note = 2-Aminoisobutyric Acid; SITE 6: note = alpha-methyl-2-fluoro-L-phenylalanine; SITE 10: note = 3-(4-Pyridyl)-L-alanine; SITE 11: note = alpha-methyl-L-serine; SITE 13: note = alpha-methyl-leucine; SITE 16: note = L-ornithine; SITE 17: note = Lysine is chemically mo
For B2, the results for the Relative cAMP EC50, nM (0.1% casein) (in test [1]; with hGLP-1R; in test [2]) were 0.0125 nM, 0.236 nM and 3.88 nM, respectively. Also, the cAMP Rel EC50 (receptor-expressing HEK-293 cells, 1% HSA) in test [1] came to 0.743 nM; with hGLP-1R, 10.6 nM; in test [2] it was 166 nM.

B3: Example 477 (peptide)
chain: YXQGTXTSDXSIXLDXKAQXXFIEYLIEGGPSSGEPPPEEG
modifications: synthetic construct; SITE 2: note = 2-Aminoisobutyric Acid; SITE 6: note = alpha-methyl-2-fluoro-L-phenylalanine; SITE 10: note = 3-(4-Pyridyl)-L-alanine; SITE 13: note = alpha-methyl-leucine; SITE 16: note = L-ornithine; SITE 17: note = Lysine is chemically modified through conjugation of the epsil
Consider B3, for which the Relative cAMP EC50, nM (0.1% casein) in test [1] turned out to be 0.0127 nM; with hGLP-1R, 0.173 nM; in test [2], 5.26 nM. Moreover, the cAMP Rel EC50 (receptor-expressing HEK-293 cells, 1% HSA) worked out at 1.44 nM in test [1], 18.7 nM with hGLP-1R and 716 nM in test [2].

B4: Example 481 (peptide)
chain: YXQGTXTSDXXIXLDXKAQXXFIEXLIEGGPSSGEPEPSEG
modifications: synthetic construct; SITE 2: note = 2-Aminoisobutyric Acid; SITE 6: note = alpha-methyl-2-fluoro-L-phenylalanine; SITE 10: note = 3-(4-Pyridyl)-L-alanine; SITE 11: note = alpha-methyl-L-serine; SITE 13: note = alpha-methyl-leucine; SITE 16: note = L-ornithine; SITE 17: note = Lysine is chemically mo
In the case of B4, the Relative cAMP EC50, nM (0.1% casein) was found to be 0.0164 nM in test [1], 0.204 nM with hGLP-1R and 1.22 nM in test [2]. The figures for the cAMP Rel EC50 (receptor-expressing HEK-293 cells, 1% HSA) (in test [1]; with hGLP-1R; in test [2]) were 1.19 nM, 14.2 nM and 100 nM, respectively.

B5: Example 475 (peptide)
chain: YXQGTXTSDXSIXLDXKAQXXFIEXLIEGGPSSGEPPPEEG
modifications: synthetic construct; SITE 2: note = 2-Aminoisobutyric Acid; SITE 6: note = alpha-methyl-2-fluoro-L-phenylalanine; SITE 10: note = 3-(4-Pyridyl)-L-alanine; SITE 13: note = alpha-methyl-leucine; SITE 16: note = L-ornithine; SITE 17: note = Lysine is chemically modified through conjugation of the epsil
As for B5, the Relative cAMP EC50, nM (0.1% casein) in test [1] was 0.0173 nM; with hGLP-1R it was 0.254 nM; in test [2], 2.24 nM. Further, the cAMP Rel EC50 (receptor-expressing HEK-293 cells, 1% HSA) amounted to 1.85 nM in test [1], 18.6 nM in the test with hGLP-1R and 254 nM in test [2].

B6: Example 476 (peptide)
chain: YXQGTXTSDXXIXLDXKAQXXFIEYLIEGGPSSGEPPPEEG
modifications: synthetic construct; SITE 2: note = 2-Aminoisobutyric Acid; SITE 6: note = alpha-methyl-2-fluoro-L-phenylalanine; SITE 10: note = 3-(4-Pyridyl)-L-alanine; SITE 11: note = alpha-methyl-L-serine; SITE 13: note = alpha-methyl-leucine; SITE 16: note = L-ornithine; SITE 17: note = Lysine is chemically mo
With B6, the Relative cAMP EC50, nM (0.1% casein) in test [1] worked out at 0.0131 nM; with hGLP-1R it was 0.164 nM; in test [2] it was 1.34 nM. Also, the cAMP Rel EC50 (receptor-expressing HEK-293 cells, 1% HSA) in test [1] came out at 1.29 nM; with hGLP-1R it was 14.6 nM; in test [2], 90.2 nM.

B7: Example 478 (peptide)
chain: HXQGTXTSDXXIXLDXKAQXNFIEYLLEGGPSSGEPPPE
modifications: synthetic construct; SITE 2: note = 2-Aminoisobutyric Acid; SITE 6: note = alpha-methyl-2-fluoro-L-phenylalanine; SITE 10: note = 3-(4-Pyridyl)-L-alanine; SITE 11: note = alpha-methyl-L-serine; SITE 13: note = alpha-methyl-leucine; SITE 16: note = L-ornithine; SITE 17: note = Lysine is chemically mo
Take B7: the results for the Relative cAMP EC50, nM (0.1% casein) (in test [1]; with hGLP-1R; in test [2]) were 0.106 nM, 0.243 nM and 8.07 nM, respectively. For the same molecule, the cAMP Rel EC50 (receptor-expressing HEK-293 cells, 1% HSA) in test [1] worked out at 26 nM; with hGLP-1R, 28.6 nM; in test [2] it was 665 nM.

B8: Example 479 (peptide)
chain: HXQGTXTSDXXIXLDXKAQXAFIEYLLEGGPSSGEPEPE
modifications: synthetic construct; SITE 2: note = 2-Aminoisobutyric Acid; SITE 6: note = alpha-methyl-2-fluoro-L-phenylalanine; SITE 10: note = 3-(4-Pyridyl)-L-alanine; SITE 11: note = alpha-methyl-L-serine; SITE 13: note = alpha-methyl-leucine; SITE 16: note = L-ornithine; SITE 17: note = Lysine is chemically mo
In the case of B8, the Relative cAMP EC50, nM (0.1% casein) in test [1] amounted to 0.0905 nM; in the test with hGLP-1R, 0.314 nM; in test [2] it was 5.98 nM. Moreover, the cAMP Rel EC50 (receptor-expressing HEK-293 cells, 1% HSA) in test [1] was 7.11 nM; with hGLP-1R, 23.5 nM; in test [2] it was 432 nM.
